Tests used:
[1] = system: caspase; assay: Caspase activation flow cytometry assay (PhiPhi Lux); format: cell-based; settings: SPATIAL-EGFP transfected cells
Excerpt: Caspase activation plays a central role in the execution of apoptosis (e.g., Budihardjo et al., Ann. Rev. Cell. Dev. Biol., 15:269-90, 1999).

[2] = system: 293T cells; assay: Cell growth analysis: number of fluorescent (EGFP-positive) cells after transient transfection; format: cell-based, human
Method: Human embryonic kidney (293T) cells were maintained in DMEM supplemented with 10% heat-inactivated FBS, 2 mM glutamine, 100 U/ml penicillin, and 0.1 mg/ml streptomycin Cells were grown at 37° C. in a humidified atmosphere with 5% CO2.
The day before transfection, the cells were trypsinized (if needed), counted and plated in a 24-well plate at the density of 7.5×10^4 cells per well with 0.5 ml of their normal growth medium containing serum without antibiotics. On the day of transfection, cells were transfected according to the recommended protocol using 1.0 μg of each plasmid DNA and 3 μl of Lipofectamine 2000 in each well. The cells were kept at 37° C. in a CO2 incubator for 24 hours. […] The number of EGFP-positive cells was calculated using fluorescence-activated cytometry (FACS) analysis at various time points after transfection.
In representative experiments, approximately 0.5-1×10^6 293T cells were transiently transfected with approximately 1-10 μg of either SPATIAL EGFP expression vector or EGFP expression vector by calcium phosphate precipitation using the Mammalian Transfection Kit (Stratagene) in accordance with the manufacturer's instructions. The number of fluorescent EGFP- or SPATIAL-EGFP-transfected cells was monitored over time using flow cytometry or microscopic examination. […]

[3] = system: 293T cells; assay: Propidium iodide staining for apoptosis; format: cell-based, human; settings: 24 to 72 hours after transfection
Excerpt: Propidium iodide is a commonly known fluorescent compound, which intercalates into double-stranded nucleic acids. It is excluded by viable cells but can penetrate cell membranes of dying or dead cells. Thus, apoptotic cells may be identified by staining (and, in particular, nuclear staining) with propidium iodide.
Approximately 0.5-1.0×10^6 293T cells were transfected with SPATIAL-EGFP using either calcium phosphate (Mammalian Transfection Kit; Stratagene, La Jolla, Calif.) or Lipofectanine (Invitrogen, Rockville, Md.) in accordance with the manufacturers' instructions. Twenty-four (24) to 72 hours after transfection, the transfected cells were sorted. Approximately 1-5×10^5 sorted cells were resuspended in a solution contain 50 μg/ml propidium iodine, 0.1% sodium citrate and 0.1% Triton X-100 and incubated overnight to lyse the cells and stain the nuclei. Then, the sample was analyzed by flow cytometry to identify sub-diploid amounts of DNA which indicates cell death via apoptosis.

[4] = system: Wehi7.2 cells; assay: Bcl-2 expression assay, SPATIAL-EGFP transfected thymocyte cell line; format: cell-based, mouse; settings: transient transfection by electroporation
Method: (§1) The mouse thymocyte cell line Wehi 7.2 and its variant Wbcl-2, which over expresses bcl-2, were maintained in DMEM supplemented with 10% heat-inactivated FBS, 2 mM glutamine, 100 U/ml penicillin, and 0.1 mg/ml streptomycin. Cells were grown at 37° C. in a humidified atmosphere with 5% CO2.
(§2) Transient transfections were performed using either lipids (Lipofectamine 2000 or FreeStyle 293 Expression System, each supplied by Invitrogen, Rockville, Md.) or calcium phosphate (Mammalian Transfection Kit; Stratagene, La Jolla, Calif.) or electroporation. Manufacturer instructions were followed for lipid and calcium phosphate transfections. For electroporation, the following procedure was used: Before transfection, Wehi cell and Wbcl-2 cells were counted and suspended in fresh complete DMEM without antibiotics at 5×10^5 cells/ml in a 15 cm dish. On the day of transfection, the cells were washed with PBS twice and were suspended in serum free DMEM at 6.25×10^6 cells/mL Aliquots of 800 μl cell suspension were transferred to a 4 mm electroporation cuvette and 10 μg of plasmid DNA solution was added. After 10 minutes incubation on ice, the cells were electroporated under the condition of 310 V, 725 ohms resistance, and 1050 μF capacitance. The transfected cells were incubated on ice for 10 minutes and suspended in complete DMEM in 10 cm dishes at the density of 7.5×10^4 viable cells/ml. […]

[5] = system: Hb12 cells; assay: Bcl-2 expression assay, SPATIAL-EGFP transfected Bcl-2 expressing thymocyte cell line; format: cell-based, mouse; settings: transient transfection by electroporation
Method: as §1, §2

[6] = system: 293T cells; assay: DiI cell division analysis by FACS; format: cell-based, human; settings: 4-day period, FIG. 7
Method: 293T cells were transfected with expression plasmid for EGFP alone (pEGFPN1; Clontech) or EGFP-SPATIAL(L). Twenty four (24) hours later, transfected cells were reacted with 3H-Indolium, 2-[3(1,3-dihydro-3,3-dimethyl-1-octacdecyl-2H-indol-2-ylidene)-propenyl]-3,3-dimethyl-octacdecyl-, perchlorate (DiI; Molecular Probes, Eugene, Oreg.) a fluorescent compound that […] binds to lipids. EGFP-positive and/or EGFP-negative cells were analyzed by FACS on the day after transfection and 1 hour after DiI labeling (Day 0) and four days after transfection (Day 4) as indicated.
To directly examine division of SPATIAL EGFP transfected cells, the lipophilic dye, 3H-Indolium, 2-[3-(1,3-dihydro-3,3-dimethyl-1-octacdecyl-2H-indol-2-ylidene) 1-propenyl]-3,3-dimethyl-1-octacdecyl-, perchlorate (DiI). DiI becomes highly fluorescent when it interacts with cell membranes and is equally portioned to each daughter cell during cell division. This property has been used to monitor cell divisions based on the reduction of dye in successive generations, which can be monitored using FACS analysis (Huang et al., Blood, 94(8):2595-2604, 1999). DiI was chosen so that the generational analysis could be done on EGFP-positive cells.

[7] = target: T1, HA-tagged SPATIAL (Mus musculus, UniProt Q7TSD4); assay: Co-immunoprecipitation of SPATIAL and Uba3 from transfected 293T cells; format: binding; settings: only in samples that contained HA-tagged SPATIAL, FIG. 15
T1 construct: expressed in transfected cells; host or cells: 293T human kidney epithelial cells, calcium phosphate transfection
T1 sequence (Q7TSD4 with tags, fused parts or gaps isoform Q7TSD4-6 limits assumed): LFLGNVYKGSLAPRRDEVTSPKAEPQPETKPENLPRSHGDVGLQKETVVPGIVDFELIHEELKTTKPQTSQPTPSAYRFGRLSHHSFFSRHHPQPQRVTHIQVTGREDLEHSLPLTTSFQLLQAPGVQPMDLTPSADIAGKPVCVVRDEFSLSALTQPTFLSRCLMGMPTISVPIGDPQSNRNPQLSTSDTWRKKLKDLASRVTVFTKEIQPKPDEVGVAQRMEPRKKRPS
T1 sequence (Q8C878 224-462 P243X partner limits assumed): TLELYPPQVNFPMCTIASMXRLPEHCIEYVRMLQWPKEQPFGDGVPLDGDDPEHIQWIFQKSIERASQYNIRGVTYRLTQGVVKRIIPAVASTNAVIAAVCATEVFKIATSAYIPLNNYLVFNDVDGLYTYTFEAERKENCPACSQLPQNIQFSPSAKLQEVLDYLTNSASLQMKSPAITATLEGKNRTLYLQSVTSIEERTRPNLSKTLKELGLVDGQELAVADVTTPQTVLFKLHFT
Method: Expression vectors encoding Myc-346 and HA-tagged SPATIAL were transfected alone or in combination into 293T cells by calcium phosphate precipitation (Mammalian Transfection Kit; Stratagene, La Jolla, Calif.) in accordance with manufacturer's instructions. Total protein lysates were prepared and immunoprecipitated with an anti-HA antibody, as described in Ausubel et al., Current Protocols in Molecular Biology, Greene Publishing Associates, updated November 2003, Chapter 20, Analysis of Protein Interactions, Unit 20.5, Detection of Protein-Protein Interaction by Coprecipitation. The immunoprecipitated proteins were separated by SDS-PAGE and transferred to a membrane for Western blotting using an anti-Myc antibody.

[8] = target: T2, GST-SPATIAL(L) (Mus musculus, UniProt Q7TSD4); assay: GST pulldown assay with GST-SPATIAL long isoform; format: binding; settings: 35S-methionine labeled in vitro translated protein
T2 construct: made in house
T2 sequence (Q7TSD4 with tags, fused parts or gaps isoform Q7TSD4-6 limits assumed): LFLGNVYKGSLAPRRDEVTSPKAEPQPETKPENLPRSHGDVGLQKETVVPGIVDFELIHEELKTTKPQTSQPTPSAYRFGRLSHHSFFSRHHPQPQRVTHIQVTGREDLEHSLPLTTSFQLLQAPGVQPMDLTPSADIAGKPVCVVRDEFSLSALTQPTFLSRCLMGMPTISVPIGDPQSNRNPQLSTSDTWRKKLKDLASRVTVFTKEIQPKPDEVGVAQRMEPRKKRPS
Method: Eighteen cDNA clones identified in the yeast two-hybrid system were tested in an in vitro glutathione-S-transferase (GST) pulldown assay, as described in Ausubel et al., Current Protocols in Molecular Biology, Greene Publishing Associates, updated November 2003, Chapter 20, Analysis of Protein Interactions, Unit 20.2, Affinity Purification of Proteins Binding to GST Fusion Proteins.
Briefly, a GST-SPATIAL fusion construct was produced by cloning SPATIAL cDNA(s) into pGEx5X1 expression vector using standard molecular cloning techniques. GST or GST-SPATIAL fusion protein were expressed in 1-1000 ml bacterial cultures grown for 3-4 hours until OD600 reached 0.5. Then, plasmid expression was induced for 1.5-4 hours by the addition of ITPG to a final concentration of 0.11 mM. GST or GST-fusion proteins were purified using glutathione-Sepharose beads as described in Ausubel et al., Current Protocols in Molecular Biology, Greene Publishing Associates, updated November 2003, Chapter 20, Analysis of Protein Interactions, Unit 20.2, Affinity Purification of Proteins Binding to GST Fusion Proteins.
A coupled in vitro transcription and translation system (Promega) was used according to the manufacturer's instructions to produce radiolabeled protein from cDNAs to be tested. Radiolabeled proteins were mixed with either purified GST or GST-SPATIAL. Then, GST-containing protein complexes were purified by centrifugation from the reaction mixtures using glutathione-coated Sepharose beads. Bound proteins were eluted from the beads with SDS-PAGE loading buffer heated to 72-85° C., separated on polyacrylamide gels, and visualized by autoradiography. Specific interactions between GST-SPATIAL and in vitro translated proteins were indicated by the presence of a radiolabeled in vitro translated protein in the GST-SPATIAL-containing samples, but not in the GST-alone samples.
GST pulldown assays were performed as described in Example 9 using GST-SPATIAL(L) and GST-SPATIAL(S) and each of the Uba3 mutants described in this example.

B1: SPATIAL-EGFP: SPATIAL isoform fused to enhanced green fluorescent protein, expressed from pEGFPN1 (protein)
chain: LFLGNVYKGSLAPRRDEVTSPKAEPQPETKPENLPRSHGDVGLQKETVVPGIVDFELIHEELKTTKPQTSQPTPSAYRFGRLSHHSFFSRHHPQPQRVTHIQVTGREDLEHSLPLTTSFQLLQAPGVQPMDLTPSADIAGKPVCVVRDEFSLSALTQPTFLSRCLMGMPTISVPIGDPQSNRNPQLSTSDTWRKKLKDLASRVTVFTKEIQPKPDEVGVAQRMEPRKKRPS
modifications: left off: large carriers
notes: SPATIAL isoform fused to enhanced green fluorescent protein, expressed from pEGFPN1
caspase activation [1]: No caspase activation was detected | increase in the number of fluorescent cells ([2]; four day period post-transfection, FIG. 6): no increase | increase in the number of fluorescent transfected cells ([2]; two-week period post-transfection, G418 selection): 2-3 fold | apoptosis based on nuclear morphology of propidium iodide stained cells [3]: no evidence of apoptosis | cell growth of transfected cells [4]: profound suppression of cell growth | cell growth of transfected cells [5]: profound suppression of cell growth | cell division of EGFP-positive cells [6]: effectively blocked the majority of transfected cells from dividing

B2: Myc-346: Myc-tagged Uba3-clone 346, carboxyl terminus of Uba3, residues 203 to 441 of SEQ ID NO: 6 (protein, listed as Mus musculus)
chain: TLELYPPQVNFPMCTIASMPRLPEHCIEYVRMLQWPKEQPFGDGVPLDGDDPEHIQWIFQKSIERASQYNIRGVTYRLTQGVVKRIIPAVASTNAVIAAVCATEVFKIATSAYIPLNNYLVFNDVDGLYTYTFEAERKENCPACSQLPQNIQFSPSAKLQEVLDYLTNSASLQMKSPAITATLEGKNRTLYLQSVTSIEERTRPNLSKTLKELGLVDGQELAVADVTTPQTVLFKLHFT
modifications: not fully specified (N-terminus); also: Myc tag
co-immunoprecipitation by anti-HA antibody [7]: reproducibly immunoprecipitated | interaction with GST-SPATIAL(L) [8]: specifically interacted

Reference: patent publication US20070248589A1 (GOVERNMENT OF THE UNITED STATES OF AMERICA AS REPRESENTED …, published 2007)
